For this test, the target named is His-tagged RBD of SARS-CoV-2 (SARS-CoV-2, UniProt P0DTC2). Put plainly: SPR.

B1: REG10987 (antibody, V domains shown)
VH: QVQLVESGGGVVQPGRSLRLSCAASGFTFSNYAMYWVRQAPGKGLEWVAVISYDGSNKYYADSVKGRFTISRDNSKNTLYLQMNSLRTEDTAVYYCASGSDYGDYLLVYWGQGTLVTVSS
VL: QSALTQPASVSGSPGQSITISCTGTSSDVGGYNYVSWYQQHPGKAPKLMIYDVSKRPSGVSNRFSGSKSGNTASLTISGLQSEDEADYYCNSLTSISTWVFGGGTKLTVL
Take B1: the binding result is given as “binds”.

B2: REG10933 (antibody, V domains shown)
VH: QVQLVESGGGLVKPGGSLRLSCAASGFTFSDYYMSWIRQAPGKGLEWVSYITYSGSTIYYADSVKGRFTISRDNAKSSLYLQMNSLRAEDTAVYYCARDRGTTMVPFDYWGQGTLVTVSS
VL: DIQMTQSPSSLSASVGDRVTITCQASQDITNYLNWYQQKPGKAPKLLIYAASNLETGVPSRFSGSGSGTDFTFTISGLQPEDIATYYCQQYDNLPLTFGGGTKVEIK
As to B2, the binding result was “binds”.

For the origin of these results see paper PMC8944172 (Antiviral Research, 2022).
